Experimental data published in US20060149033A1, “IGF antagonist peptides” (GENENTECH, INC., priority 2001, published 2006).
Bridge positions count the residues as written; N and C are the ends. Peptide text beside a SMILES is read from it.

target: T1, IGF-1 (Homo sapiens, UniProt P05019); test: Affinity measurement by monovalent phage ELISA (phage competition IC50); assay type: binding; details: positive second generation clones
T1 construct: made in house
Method: E. coli XL1-Blue harboring phagemids were grown overnight at 37° C. in 2YT, 50 μg/mL carbenicillin, 10 μg/mL tetracycline and M13-VCS helper phage (10^10 phage/mL). Phage were harvested from the culture supernatant by precipitation twice with PEG/NaCl and resuspended in phosphate-buffered saline, 0.2% BSA, 0.1% TWEEN®-20 detergent (BSA blocking buffer). Phage concentrations were determined spectrophotometrically (λ268=1.2×10^8 M^−1 cm^−1).
MAXISORP™ immunoplates (96-well) were coated with capture target protein for 2 hours at room temperature (100 μL at 5 μg/mL in 50 mM carbonate buffer, pH 9.6). The plates were then blocked for 1 h with 0.2% BSA in phosphate-buffered saline (PBS) and washed eight times with PBS, 0.05% TWEEN®-20 detergent. Phage particles were serially diluted into BSA blocking buffer and 100 μL were transferred to coated wells. After 1 h, plates were washed eight times with PBS, 0.05% TWEEN®-20 detergent, incubated with 100 μL of 1:3000 horse radish peroxidase/anti-M13 antibody conjugate in BSA blocking buffer for 30 min, and then washed eight times with PBS, 0.05% TWEEN®-20 detergent and two times with PBS. Plates were developed using a tetramethylbenzidine substrate (TMB, Kirkegaard and Perry, Gaithersburg, Md.), stopped with 1.0 M H3PO4, and read spectrophotometrically at […].
Affinity Measurement by Monovalent Phage ELISA
Phage ELISAs were carried out as described above, using plates coated with IGF-1. Peptide-displaying phage were serially diluted and binding was measured to determine a phage concentration giving <50% of the ELISA signal at saturation.
A fixed, subsaturating concentration of peptide-phage was mixed with serial dilutions of IGF-1 and incubated for 1.0 hr and then transferred to assay plates coated with IGF-1. After 30-min incubation, the plates were washed and developed as described above. The binding affinities of the peptides for IGF-1 were determined as IC50 values where the IC50 value is defined as the concentration of IGF-1 that blocked 50% of the peptide-phage binding to the immobilized IGF-1.

T1 sequence (P05019 49-118 limits assumed): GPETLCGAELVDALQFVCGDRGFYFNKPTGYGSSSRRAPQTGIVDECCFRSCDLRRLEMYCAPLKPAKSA

IC50 [µM]	Compound
0.401	F1-A (HPCLESVGALKACMY; Sequence is synthesized) [Peptide F1-A]
0.301	F1-B (FGCYESVAALRTCMY; Sequence is synthesized) [Peptide F1-B]
0.108	F1-C (RNCFESVAALRRCMY; Sequence is synthesized) [Peptide F1-C]
0.711	F1-E (SDCFGSVEALKMCMY; Sequence is synthesized) [Peptide F1-E]
0.286	F1-F (FECLTSVEALRGCMY; Sequence is synthesized) [Peptide F1-F]
0.968	F1-G (SDCFESVEALRACMY; Sequence is synthesized) [Peptide F1-G]
0.147	F1-H (MDCLASVEALKWCMY; Sequence is synthesized) [Peptide F1-H]
1.33	F2-A (GGCASDLAGFRYCWE; Sequence is synthesized) [Peptide F2-A]
24.6	F2-B (VRCAYDAGGSRYCWE; Sequence is synthesized) [Peptide F2-B]
10000	F2-C (VKCARDLSGFVYCWA; Sequence is synthesized) [Peptide F2-C]
249	F2-D (VRCAWDLGGRAYCWA; Sequence is synthesized) [Peptide F2-D]
0.554	F2-E (LGCASDLAGFWYCWA; Sequence is synthesized) [Peptide F2-E]
209	F2-F (FRCAWELGWLYVLGL; Sequence is synthesized) [Peptide F2-F]
0.986	F2-G (ASCVADAGGGGYCWD; Sequence is synthesized) [Peptide F2-G]
0.319	F2-H (WRCVDDLGGFQYCWA; Sequence is synthesized) [Peptide F2-H]
1.03	F2-I (VTCAADALGFLYCWE; Sequence is synthesized) [Peptide F2-I]
2.12	F2-J (LRCAEDLGGYFYCWA; Sequence is synthesized) [Peptide F2-J]
1.45	F2-K (YRCATDLAGFSYCWA; Sequence is synthesized) [Peptide F2-K]
4.36	F2-L (ARCARDAGGFYYCWA; Sequence is synthesized) [Peptide F2-L]
1.04	F2-M (WRCAQDAGGWTYCWA; Sequence is synthesized) [Peptide F2-M]
1.18	F2-N (WRCVTDAGGRPYCWA; Sequence is synthesized) [Peptide F2-N]

system: human insulin receptor (hIR); test: Cell-based insulin KIRA assay (kinase receptor activation); details: Chinese hamster ovary cells transfected with hIR; peptides incubated with 25 nm IGF-1 for 1 hr; 15 min stimulation
Method: Cell-Based Insulin KIRA Assay of IGF-1 Binding Peptide Activity
A kinase receptor activation assay (KIRA) (Sadick et al., J. Pharm. Biomed. Anal., 19, 883-891 (1999)) for measuring phosphorylation of human insulin receptor (hIR) was developed using Chinese hamster ovary cells transfected with the hIR. (TRY-1R 5.3) Cells were grown overnight in 96-well plates with medium (PS/20) at 37° C. Supernatants were decanted and stimulation media (PS/20 and 0.5% BSA) containing either peptide samples (peptides incubated with 25 nm IGF-1 for 1 hr), experimental controls (IGF Bp1 incubated with IGF-1 for 1 hr), and 25 nm rhIGF-1 standards were added. After fifteen minute stimulation at 37° C., stimulation solutions were removed and cells were lysed with a buffer containing 50 mM HEPES, 150 mM NaCl, 0.5% Triton-X-100™ octylphenyl ethylene oxide condensate, 1 mM AEBSF, aprotinin and 0.05 mM leupeptin, and 2 mM sodium orthovanadate. Lysates were frozen at −70° C. for ELISA. Immunosorbant plates were coated with 2 μg/ml insulin receptor Ab-2 (clone 83-7) in PBS at pH 7.0 overnight at 4° C. The plate was blocked and washed as above. Cell lysates containing transfected hIR were incubated on the capture ELISA plates for 2 hrs. After removing unbound receptor by washing, biotinylated anti-phosphotyrosine 4G10 (Upstate Biologicals Inc.) was added to detect activated receptor. After 2 hrs, the plates were developed with streptavidin conjugated to HRP and TMB substrate as above.

Compound	IC50 [µM]
CSCC[C@H](NC(=O)[C@@H]1CSSC[C@H](NC(=O)[C@H](CCC(=O)O)NC(=O)[C@@H](N)CC(=O)O)C(=O)N[C@@H](CC(C)C)C(=O)N[C@@H](CCSC)C(=O)N[C@@H](CO)C(=O)N[C@@H](C(C)C)C(=O)N[C@@H](CCC(=O)O)C(=O)N[C@@H](C)C(=O)N[C@@H](CC(C)C)C(=O)N[C@@H](CCCCN)C(=O)N[C@@H](CC(N)=O)C(=O)N1)C(=O)NCC(=O)NCC(=O)O [Peptide F1-P, DECLMSVEALKNCMGG] (H-DECLMSVEALKNCMGG-OH; disulfide 3-13)	183
CC(C)C[C@@H]1NC(=O)[C@H](CC(=O)O)NC(=O)[C@H](CO)NC(=O)[C@H](C)NC(=O)[C@@H](NC(=O)CNC(=O)[C@@H](N)CC(C)C)CSSC[C@@H](C(=O)N[C@@H](Cc2c[nH]c3ccccc23)C(=O)N[C@@H](C)C(=O)NCC(=O)O)NC(=O)[C@H](Cc2ccc(O)cc2)NC(=O)[C@H](Cc2c[nH]c3ccccc23)NC(=O)[C@H](Cc2ccccc2)NC(=O)CNC(=O)[C@H](C)NC1=O [Peptide F2-1, LGCASDLAGFWYCWAG] (H-LGCASDLAGFWYCWAG-OH; disulfide 3-13 (inferred); N-terminus and C-terminus assumed)	40.4
CC(C)C[C@@H]1NC(=O)[C@H](CC(=O)O)NC(=O)[C@H](CC(=O)O)NC(=O)[C@H](C(C)C)NC(=O)[C@@H](NC(=O)[C@H](CCCNC(=N)N)NC(=O)[C@@H](N)Cc2c[nH]c3ccccc23)CSSC[C@@H](C(=O)N[C@@H](Cc2c[nH]c3ccccc23)C(=O)N[C@@H](C)C(=O)NCC(=O)O)NC(=O)[C@H](Cc2ccc(O)cc2)NC(=O)[C@H](CCC(N)=O)NC(=O)[C@H](Cc2ccccc2)NC(=O)CNC(=O)CNC1=O [Peptide F2-2, WRCVDDLGGFQYCWAG] (H-WRCVDDLGGFQYCWAG-OH; disulfide 3-13 (inferred); N-terminus and C-terminus assumed)	93.6
CC(C)[C@@H]1NC(=O)[C@@H](NC(=O)[C@H](CCCNC(=N)N)NC(=O)[C@H](C)N)CSSC[C@@H](C(=O)N[C@@H](Cc2c[nH]c3ccccc23)C(=O)N[C@@H](C)C(=O)NCC(=O)O)NC(=O)[C@H](Cc2ccc(O)cc2)NC(=O)[C@H](Cc2c[nH]c3ccccc23)NC(=O)[C@H]([C@@H](C)O)NC(=O)CNC(=O)CNC(=O)[C@H](C)NC(=O)[C@H](CC(=O)O)NC(=O)[C@H](C(C)C)NC1=O [Peptide F2-P, ARCVVDAGGTWYCWAG] (H-ARCVVDAGGTWYCWAG-OH; disulfide 3-13)	300

system: human type 1 IGF-1 receptor; test: Cell-based IGF-1 KIRA assay; details: MCF-7 cells; peptides preincubated 30 min with 2 nm IGF-1; 15-minute stimulation
Method: Cell-Based IGF-1 KIRA Assay
A KIRA for measuring the activation of the human type 1 IGF-1 receptor was performed using human MCF-7 cells (as described above). Cells were grown overnight in 96-well plates with medium (50:50 F12/DMEM, Gibco). Supernatants were decanted, and stimulation media (50:50 F12/DMEM with 25 mM HEPES and 2.0% BSA) containing either controls (2 nM IGF-1 preincubated with IGF Bp1 or Bp3) or experimental samples (Peptides preincubated for 30 min. with 2 nm IGF-1) were added. After 15-minute stimulation the cells were lysed, and added to the polyclonal anti-IGF-R (3B7 Santa Cruz Biotech) coated overnight on immunosorbant plates. The detection ELISA was performed as above.

Compound	IC50 [µM]
CSCC[C@H](NC(=O)[C@@H]1CSSC[C@H](NC(=O)[C@H](CCC(=O)O)NC(=O)[C@@H](N)CC(=O)O)C(=O)N[C@@H](CC(C)C)C(=O)N[C@@H](CCSC)C(=O)N[C@@H](CO)C(=O)N[C@@H](C(C)C)C(=O)N[C@@H](CCC(=O)O)C(=O)N[C@@H](C)C(=O)N[C@@H](CC(C)C)C(=O)N[C@@H](CCCCN)C(=O)N[C@@H](CC(N)=O)C(=O)N1)C(=O)NCC(=O)NCC(=O)O [Peptide F1-P, DECLMSVEALKNCMGG] (H-DECLMSVEALKNCMGG-OH; disulfide 3-13)	400
CC(C)C[C@@H]1NC(=O)[C@H](CC(=O)O)NC(=O)[C@H](CC(=O)O)NC(=O)[C@H](C(C)C)NC(=O)[C@@H](NC(=O)[C@H](CCCNC(=N)N)NC(=O)[C@@H](N)Cc2c[nH]c3ccccc23)CSSC[C@@H](C(=O)N[C@@H](Cc2c[nH]c3ccccc23)C(=O)N[C@@H](C)C(=O)NCC(=O)O)NC(=O)[C@H](Cc2ccc(O)cc2)NC(=O)[C@H](CCC(N)=O)NC(=O)[C@H](Cc2ccccc2)NC(=O)CNC(=O)CNC1=O [Peptide F2-2, WRCVDDLGGFQYCWAG] (H-WRCVDDLGGFQYCWAG-OH; disulfide 3-13 (inferred); N-terminus and C-terminus assumed)	130
